From publication PMC3075617 (Cell, 2011)
“And” between values parts separate entries of the source, which are not always exact repeats. Equal entries are not always repeated. Each block holds one molecule with its values, some of them ahead of it.

B2: DegP^S210A active-site mutant (enzyme, Escherichia coli, UniProt P0C0V0 27-474, looked up)
chain: AETSSATTAQQMPSLAPMLEKVMPSVVSINVEGSTTVNTPRMPRNFQQFFGDDSPFCQEGSPFQSSPFCQGGQGGNGGGQQQKFMALGSGVIIDADKGYVVTNNHVVDNATVIKVQLSDGRKFDAKMVGKDPRSDIALIQIQNPKNLTAIKMADSDALRVGDYTVAIGNPFGLGETVTSGIVSALGRSGLNAENYENFIQTDAAINRGNAGGALVNLNGELIGINTAILAPDGGNIGIGFAIPSNMVKNLTSQMVEYGQVKRGELGIMGTELNSELAKAMKVDAQRGAFVSQVLPNSSAAKAGIKAGDVITSLNGKPISSFAALRAQVGTMPVGSKLTLGLLRDGKQVNVNLELQQSSQNQVDSSSIFNGIEGAEMSNKGKDQGVVVNNVKTGTPAAQIGLKKGDVIIGANQQAVKNIAELRKVLDSKPSVLALNIQRGDSTIYLLMQ

Tests used:
DegP = DegP (Escherichia coli, UniProt P0C0V0); assay type: biochemical; details: reporter 100 μM; no activator; 23 °C, 50 mM sodium phosphate pH 8, 100 mM NaCl
[1] = target: T1, DegP^S210A/Y444A (Escherichia coli), P0C0V0; test: SEC; details: remark: other sources report otherwise
T1 chain: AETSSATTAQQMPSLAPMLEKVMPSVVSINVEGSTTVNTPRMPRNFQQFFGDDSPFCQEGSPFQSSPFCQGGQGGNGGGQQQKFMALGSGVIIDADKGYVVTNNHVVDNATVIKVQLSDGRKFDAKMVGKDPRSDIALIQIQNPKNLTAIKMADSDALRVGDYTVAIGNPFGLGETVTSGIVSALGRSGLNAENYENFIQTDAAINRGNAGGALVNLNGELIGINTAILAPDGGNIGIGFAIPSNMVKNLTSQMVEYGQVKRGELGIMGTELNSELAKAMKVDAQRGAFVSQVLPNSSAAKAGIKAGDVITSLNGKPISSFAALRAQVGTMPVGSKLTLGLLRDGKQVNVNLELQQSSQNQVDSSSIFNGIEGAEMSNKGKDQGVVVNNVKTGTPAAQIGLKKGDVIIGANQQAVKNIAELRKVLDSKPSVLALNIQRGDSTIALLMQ

[2] = target: T1, DegP^S210A/Y444A (Escherichia coli), …; test: SEC; details: remark: other sources report otherwise
AUC = target: the molecule itself; test: AUC
SEC = target: the molecule itself; test: SEC
[3] = target: B2; test: crystal structure

DegP, sequence (P0C0V0 27-474): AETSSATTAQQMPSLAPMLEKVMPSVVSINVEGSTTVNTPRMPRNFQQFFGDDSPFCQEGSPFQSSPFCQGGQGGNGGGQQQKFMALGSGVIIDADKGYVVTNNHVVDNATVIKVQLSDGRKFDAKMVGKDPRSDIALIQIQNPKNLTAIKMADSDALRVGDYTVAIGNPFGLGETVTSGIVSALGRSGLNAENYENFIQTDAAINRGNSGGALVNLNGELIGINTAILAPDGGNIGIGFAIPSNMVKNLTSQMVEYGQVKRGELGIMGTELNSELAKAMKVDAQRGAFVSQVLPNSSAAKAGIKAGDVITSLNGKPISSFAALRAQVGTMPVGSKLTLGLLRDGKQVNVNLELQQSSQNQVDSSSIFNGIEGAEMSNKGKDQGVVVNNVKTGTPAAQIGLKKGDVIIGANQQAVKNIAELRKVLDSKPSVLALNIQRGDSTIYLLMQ

Molecule: Abz-KASPVSLGY^NO2D [reporter peptide]
rate of reporter peptide cleavage by DegP alone (DegP): 0.027 min^−1 DegP^−1

stoichiometry N [1]: 6
stoichiometry N [2]: 6
B1: DegP^S210A/Y444A, P0C0V0 27-474 (enzyme)
chain: AETSSATTAQQMPSLAPMLEKVMPSVVSINVEGSTTVNTPRMPRNFQQFFGDDSPFCQEGSPFQSSPFCQGGQGGNGGGQQQKFMALGSGVIIDADKGYVVTNNHVVDNATVIKVQLSDGRKFDAKMVGKDPRSDIALIQIQNPKNLTAIKMADSDALRVGDYTVAIGNPFGLGETVTSGIVSALGRSGLNAENYENFIQTDAAINRGNAGGALVNLNGELIGINTAILAPDGGNIGIGFAIPSNMVKNLTSQMVEYGQVKRGELGIMGTELNSELAKAMKVDAQRGAFVSQVLPNSSAAKAGIKAGDVITSLNGKPISSFAALRAQVGTMPVGSKLTLGLLRDGKQVNVNLELQQSSQNQVDSSSIFNGIEGAEMSNKGKDQGVVVNNVKTGTPAAQIGLKKGDVIIGANQQAVKNIAELRKVLDSKPSVLALNIQRGDSTIALLMQ

Molecule: B2
stoichiometry N (AUC): 18 and 24 and 30
stoichiometry N (SEC): 6

binding result [3]: binds
Molecule: DNYRGYSLGNWVSAAKFESNFNTQATNRNTDGSTDYGILQI (peptide, UniProt P00698 36-76, looked up) [18-58 polypeptide (lysozyme residues 18-58 with the cysteines mutated to serines)]
